What was measured:
[1] = biological target: human Claudin 18 splice variant 2 (CLDN18.2) (human); assay: cell-based or functional assay
[2] = biological target: human Claudin 18 splice variant 2 (CLDN18.2) (human)

B1: IMAB362 (antibody, INN chains, looked up, V domains shown)
VH: QVQLQQPGAELVRPGASVKLSCKASGYTFTSYWINWVKQRPGQGLEWIGNIYPSDSYTNYNQKFKDKATLTVDKSSSTAYMQLSSPTSEDSAVYYCTRSWRGNSFDYWGQGTTLTVSS
VL: DIVMTQSPSSLTVTAGEKVTMSCKSSQSLLNSGNQKNYLTWYQQKPGQPPKLLIYWASTRESGVPDRFTGSGSGTDFTLTISSVQAEDLAVYYCQNDYSYPFTFGSGTKLEIKR
Binder B1 has an ADCC EC50 (ng/ml), BxPC3 LVT cells [1] of 47.7 ng/mL, an ADCC EC50 (ng/ml), CAPAN1-LVT cells [1] of 65 ng/mL and an ADCC EC50 (ng/ml), DANG cells [1] of 4980 ng/mL. It also gave an ADCC EC50 (ng/ml), DANG-LVT cells [1] of 52.3 ng/mL, an ADCC EC50 (ng/ml), HPAC-LVT cells [1] of 117 ng/mL and an ADCC EC50 (ng/ml), MiaPaCa2-LVT cells [1] of 23.4 ng/mL. For the same binder, the ADCC EC50 (ng/ml), Panc05.04 cells [1] was 5730 ng/mL, the ADCC EC50 (ng/ml), Patu8902-LVT cells [1] was 49.2 ng/mL and the ADCC EC50 (ng/ml), Suit2-LVT cells [1] was 73.2 ng/mL. It also gave an ADCC EC50 (ng/ml), YAPC-LVT cells [1] of 29.5 ng/mL, an ADCC Max. lysis (%), BxPC3 LVT cells, human PBMC E:T 40:1 [1] of 90.6% and an ADCC Max. lysis (%), CAPAN1-LVT cells [1] of 92.6%. It also gave an ADCC Max. lysis (%), DANG cells [1] of 52.5%, an ADCC Max. lysis (%), DANG-LVT cells [1] of 85.9% and an ADCC Max. lysis (%), HPAC-LVT cells [1] of 76.2%. For the same binder, the ADCC Max. lysis (%), MiaPaCa2-LVT cells [1] was 78.1%, the ADCC Max. lysis (%), Panc05.04 cells [1] was 67.1% and the ADCC Max. lysis (%), Patu8902-LVT cells [1] was 74.1%. It also gave an ADCC Max. lysis (%), Suit2-LVT cells [1] of 81.2%, an ADCC Max. lysis (%), YAPC-LVT cells [1] of 91.5% and a CDC EC50 (ng/ml), CAPAN1-LVT cells [1] of 970 ng/mL. The CDC EC50 (ng/ml), MiaPaCa2-LVT cells [1] was 340 ng/mL, the CDC EC50 (ng/ml), Patu8902-LVT cells [1] was 291 ng/mL and the CDC EC50, gemcitabine pretreated MiaPaCa-2-LVT cells [1] was 4.68 µg/mL. For the same binder, the CDC EC50, medium cultivated MiaPaCa-2-LVT cells [1] was 7.67 µg/mL, the CDC Max. lysis (%), CAPAN1-LVT cells [1] was 79.1% and the CDC Max. lysis (%), MiaPaCa2-LVT cells [1] was 78.4%. It also gave a CDC Max. lysis (%), Patu8902-LVT cells [1] of 76.7% and a CLDN18 surface expression (FACS), % of cells stained [2] of 81.7%.

From patent US20210023177A1
